This experiment deals with Paracoccidioides brasiliensis 1-Cys peroxiredoxin (PbPrx1), recombinant (Paracoccidioides brasiliensis (isolate Pb18)). The experiment in a line: SEC; analytical HPLC, Phenomenex BioSep-SEC-S3000 column, 50 uM protein in 100 mM Tris-HCl pH 7.4, run in 100 mM Tris-HCl pH 7.4 with 50 mM NaCl, 1.0 mL/min; samples treated beforehand with 5 mM TCEP (reduced) or 1.2 molar equivalents of H2O2 (oxidised) for 30 min at 25 C; dimeric in both redox states. A general note: SEC sorts molecules by how far they enter the pores of the column.

For “Paracoccidioides brasiliensis 1-Cys peroxiredoxin (PbPrx1), recombinant (enzyme)”, the stoichiometry N (usually the number of molecules, sites or subunits per partner or assembly) was 2.
